Consider eight molecules from paper doi:10.1101/2020.06.27.175497, “Novel mode of filament formation in UPA-promoted CARD8 and NLRP1 Inflammasomes” (bioRxiv, 2020).

Sequences and labels used below:
B1: NLRP1-CT (UPA-CARD fragment of NLRP1, S1213-S1473) (domain or fragment, human, UniProt Q9C000-1 1213-1473, looked up)
chain: SPLGVLLKMIHNALRFIPVTSVVLLYHRVHPEEVTFHLYLIPSDCSIRKAIDDLEMKFQFVRIHKPPPLTPLYMGCRYTVSGSGSGMLEILPKELELCYRSPGEDQLFSEFYVGHLGSGIRLQVKDKKDETLVWEALVKPGDLMPATTLIPPARIAVPSPLDAPQLLHFVDQYREQLIARVTSVEVVLDKLHGQVLSQEQYERVLAENTRPSQMRKLFSLSQSWDRKCKDGLYQALKETHPHLIMELWEKGSKKGLLPLSS
notes: NLRP1, human, UPA-CARD fragment S1213-S1473, isoform 1 (Q9C000-1); Forms thick helical filaments of CARD dimers; the purified filaments still held some uncleaved His-MBP-tagged subunits; Only the CARD is resolved in the map; also called NLRP1^UPA-CARD; source: E. coli BL21 (DE3), purified (amylose resin, Superose 6, MBP-3C protease cleavage, Superose 6 void fraction); not shown: His, …
B4: CARD8-CT (UPA-CARD fragment of CARD8, S297-L537) (domain or fragment, human, UniProt Q9Y2G2-5 297-537, looked up)
chain: SLMGILLRIASGTRLSIPITSNTLIYYHPHPEDIKFHLYLVPSDALLTKAIDDEEDRFHGVRLQTSPPMEPLNFGSSYIVSNSANLKVMPKELKLSYRSPGEIQHFSKFYAGQMKEPIQLEITEKRHGTLVWDTEVKPVDLQLVAASAPPPFSGAAFVKENHRQLQARMGDLKGVLDDLQDNEVLTENEKELVEQEKTRQSKNEALLSMVEKKGDLALDVLFRSISERDPYLVSYLRQQNL
notes: CARD8, human, UPA-CARD fragment S297-L537 of the T60 isoform; numbers count on: the T60 isoform Q9Y2G2-5; Forms helical filaments; the purified filaments still held some uncleaved His-MBP-tagged subunits; Only the CARD is resolved in the map; also called CARD8^UPA-CARD; source: E. coli BL21 (DE3), purified (amylose resin, MBP-3C protease cleavage, Superose 6 void fraction); not shown: His, …
B7: caspase-1^CARD (1-95) G20K (domain or fragment, UniProt P29466 1-95, looked up)
chain: MADKVLKEKRKLFIRSMGEKTINGLLDELLQTRVLNKEEMEKVKRENATVMDKTRALIDSVIPKGAQACQICITYICEEDSYLAGTLGLSADQTS
notes: caspase-1, CARD, residues 1-95; Stood in the experiment on one chain with ASC^CARD W169G through a 5 x GSS linker (fusion m9); also called CASP1^CARD; type IIb G20K mutant of caspase-1^CARD; source: E. coli BL21 (DE3), purified (Ni-NTA, TEV cleavage, amylose flow-through, Superdex 200), as part of the fusion m9

Data set [1] deals with the molecule itself. Kind of data set: negative-stain EM of filaments formed in vitro; recombinant MBP-tagged protein cleaved with 3C protease, sample stained with 1% uranyl formate and imaged.
Data set [2] deals with the molecule itself. Kind of data set: SEC; amylose eluate of His-MBP-NLRP1-CT on Superose 6 in 25 mM Tris-HCl pH 7.5, 150 mM NaCl, 1 mM TCEP; a range of small oligomers.
For data set [3], the target named is B1. Description: SEC; after partial 3C cleavage, filaments recovered from the Superose 6 void fraction; SDS-PAGE of the fraction shows uncleaved MBP-tagged protein. The note with it: both partners purified. Background: SEC sorts molecules by how far they enter the pores of the column.
Data set [4] concerns the molecule itself. Description: SEC-MALS; Superdex 200 in 25 mM Tris-HCl pH 8.0, 150 mM NaCl, 2 mM DTT; three-angle light scattering and refractive index detectors.
Data set [5] deals with the molecule itself. Description: cryo-EM structure; purified CARD8 CT filaments (Superose 6 void fraction), A280 = 0.75; 25 mM Tris-HCl pH 7.5, 150 mM NaCl, 1 mM TCEP; helical reconstruction.
Data set [6] has as its target B4. Kind of data set: SEC; after partial 3C cleavage, filaments recovered from the Superose 6 void fraction; SDS-PAGE of the fraction shows uncleaved MBP-tagged protein. The note with it: both partners purified.
The target in data set [7] is B7. Kind of data set: cryo-EM structure; purified ASC^CARD-caspase-1^CARD octamer (tetramer of the fusion protein); single-particle reconstruction. The conditions noted are these: both partners purified.
Data set [8] concerns the molecule itself. The description is as above.

For B1, in data set [1], the binding result was “binds”.

B2: His-MBP-3C-UPA-CARD of NLRP1 (uncleaved MBP fusion of NLRP1-CT) (domain or fragment, human, UniProt Q9C000-1 1213-1473, looked up)
chain: SPLGVLLKMIHNALRFIPVTSVVLLYHRVHPEEVTFHLYLIPSDCSIRKAIDDLEMKFQFVRIHKPPPLTPLYMGCRYTVSGSGSGMLEILPKELELCYRSPGEDQLFSEFYVGHLGSGIRLQVKDKKDETLVWEALVKPGDLMPATTLIPPARIAVPSPLDAPQLLHFVDQYREQLIARVTSVEVVLDKLHGQVLSQEQYERVLAENTRPSQMRKLFSLSQSWDRKCKDGLYQALKETHPHLIMELWEKGSKKGLLPLSS
notes: NLRP1, human, UPA-CARD fragment S1213-S1473, isoform 1 (Q9C000-1); HRV 3C protease linker between MBP and UPA-CARD; modified pDB-His-MBP vector; also called MBP-fusion protein; MBP-CT fusion protein; source: E. coli BL21 (DE3), purified (amylose resin, Superose 6); not shown: His, N-terminal, kept; MBP, N-terminal, kept
Take B2: the binding result in data set [2] and in data set [3] was “binds” in each case.

B3: ASC^CARD (106-195, W169G) - 5 x GSS linker - caspase-1^CARD (1-95, G20K) fusion protein (other)
chain: SAAKPGLHFIDQHRAALIARVTNVEWLLDALYGKVLTDEQYQAVRAEPTNPSKMRKLFSFTPAGNWTCKDLLLQALRESQSYLVEDLERSGSSGSSGSSGSSGSSMADKVLKEKRKLFIRSMGEKTINGLLDELLQTRVLNKEEMEKVKRENATVMDKTRALIDSVIPKGAQACQICITYICEEDSYLAGTLGLSADQTS
notes: ASC, CARD, residues 106-195; 5 x GSS linker, written out from '5XGSS'; caspase-1, CARD, residues 1-95; Tetramer of the fusion = octamer of CARDs; also called ASC^CARD-caspase-1^CARD fusion protein; ASC^CARD-CASP1^CARD; source: E. coli BL21 (DE3), purified (Ni-NTA, TEV cleavage, amylose flow-through, Superdex 200); not shown: His6, N-terminal, cleaved; MBP, N-terminal, cleaved
As for B3, the “stoichiometry N” value in data set [4] is 4.
Turning to B4, the binding result in data set [5] is listed as “binds”.

B5: His-MBP-3C-UPA-CARD of CARD8 (uncleaved MBP fusion of CARD8-CT) (domain or fragment, human, UniProt Q9Y2G2-5 297-537, looked up)
chain: SLMGILLRIASGTRLSIPITSNTLIYYHPHPEDIKFHLYLVPSDALLTKAIDDEEDRFHGVRLQTSPPMEPLNFGSSYIVSNSANLKVMPKELKLSYRSPGEIQHFSKFYAGQMKEPIQLEITEKRHGTLVWDTEVKPVDLQLVAASAPPPFSGAAFVKENHRQLQARMGDLKGVLDDLQDNEVLTENEKELVEQEKTRQSKNEALLSMVEKKGDLALDVLFRSISERDPYLVSYLRQQNL
notes: CARD8, human, UPA-CARD fragment S297-L537 of the T60 isoform; numbers count on: the T60 isoform Q9Y2G2-5; HRV 3C protease linker between MBP and UPA-CARD; modified pDB-His-MBP vector; also called MBP-fusion protein; MBP-CT fusion protein; source: E. coli BL21 (DE3), purified (amylose resin); not shown: His, N-terminal, kept; MBP, N-terminal, kept
With B5, the binding result in data set [6] is “binds”.

B6: ASC^CARD (106-195) W169G (domain or fragment, UniProt Q9ULZ3 106-195, looked up)
chain: SAAKPGLHFIDQHRAALIARVTNVEWLLDALYGKVLTDEQYQAVRAEPTNPSKMRKLFSFTPAGNWTCKDLLLQALRESQSYLVEDLERS
notes: ASC, CARD, residues 106-195; Stood in the experiment on one chain with caspase-1^CARD G20K through a 5 x GSS linker (fusion m9); also called type IIa W169G mutant of ASC^CARD; source: E. coli BL21 (DE3), purified (Ni-NTA, TEV cleavage, amylose flow-through, Superdex 200), as part of the fusion m9
For B6, the binding result in data set [7] and in data set [8] was “binds” each time.
On to B7, for which the binding result in data set [8] was “binds”.

B8: NLRP1^CARD (D1374-S1473, with G1463C) (domain or fragment, human, UniProt Q9C000-1 1374-1473, looked up)
chain: DAPQLLHFVDQYREQLIARVTSVEVVLDKLHGQVLSQEQYERVLAENTRPSQMRKLFSLSQSWDRKCKDGLYQALKETHPHLIMELWEKCSKKGLLPLSS
notes: NLRP1, human, CARD D1374-S1473, isoform 1 (Q9C000-1); G1463C (helix alpha6) was added for cysteine labelling in the constructs for in vitro analyses; The cleavage of the tag is described for the CARD8^CARD filament assay; also called CARD alone; WT CARD; source: E. coli BL21 (DE3), purified as monomeric MBP-CARD (amylose resin, Superdex 200), filaments formed in vitro
On to B8, for which the binding result in data set [1] is listed as “binds”.

A word on the stoichiometry N: it is a count of units in the complex or per binding partner.
